# Experimental data: patent publication US20260167681A1 (POSTECH RESEARCH AND BUSINESS DEVELOPMENT FOUNDATION, published 2026)
# T1: ovalbumin (OVA) (UniProt P01012 2-386)
# T1 construct: also called model antigen ovalbumin
# T1 sequence (looked up): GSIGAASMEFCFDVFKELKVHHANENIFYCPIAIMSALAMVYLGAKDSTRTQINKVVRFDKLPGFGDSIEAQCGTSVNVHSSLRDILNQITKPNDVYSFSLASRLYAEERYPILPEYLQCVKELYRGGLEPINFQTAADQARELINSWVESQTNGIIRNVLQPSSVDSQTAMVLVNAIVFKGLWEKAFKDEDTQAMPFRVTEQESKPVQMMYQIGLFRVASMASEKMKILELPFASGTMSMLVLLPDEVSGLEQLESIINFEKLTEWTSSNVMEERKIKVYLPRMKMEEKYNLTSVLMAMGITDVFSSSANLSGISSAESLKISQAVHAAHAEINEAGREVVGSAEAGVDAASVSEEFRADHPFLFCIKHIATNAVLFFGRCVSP
# B1: adhesive adjuvant protein (MAP-AP; MAP-based Adjuvant Protein) (other)
# chain: MAKPSYPPTYKAKPSYPPTYKAKPSYPPTYKAKPSYPPTYKAKPSYPPTYKAKPSYPPTYKPWSSEEYKGGYYPGNTYHYHSGGSYHGSGYHGGYKGKYYGKAKKYYYKYKNSGKYKYLKKARKYHRKGYKKYYGGGSSAKPSYPPTYKAKPSYPPTYKAKPSYPPTYKAKPSYPPTYKAKPSYPPTYKAKPSYPPTYKLGGGGSAKFVAAWTLKAAA
# notes: Recombinant fusion protein made in E. coli; also called MAP-based Adhesive adjuvant protein
# Molecular target: T1, ovalbumin (OVA)
# Assay: zeta potential (DLS, Zetasizer) of ovalbumin/MAP-AP mixtures at weight ratios 2, 1 and 0.5
# Protocol: First, ovalbumin and the adhesive adjuvant protein (MAP-AP) were prepared at a concentration of 1 mg/mL each, and nanocomplexes were then prepared with ovalbumin and MAP-AP at weight ratios of 2, 1, and 0.5, respectively. Dynamic light scattering (DLS, Zetasizer, UK) was used to measure the surface charge of the samples. The concentration of each substance was maintained below 1 mg/mL, and all measurements were performed at room temperature.
# As a result, the spontaneous formation of nanocomplexes by the negatively charged ovalbumin and adhesive adjuvant protein (MAP-AP) was confirmed through changes in surface charge. When the mass ratio of ovalbumin to MAP-AP reached 1 or higher, the adhesive adjuvant protein (MAP-AP) became saturated, and the mass ratio was ultimately set to 1.
binder,measurement,value
B1,mass ratio of ovalbumin to MAP-AP at which MAP-AP is saturated,≥ 1 mass ratio (ovalbumin:MAP-AP)
